From article PMC12355757, “TRIM6 ablation reverses ICB resistance in MSS gastric cancer by unleashing cGAS-STING-dependent antitumor immunity” (Journal of Experimental & Clinical Cancer Research : CR, 2025) come the findings set out here.

In the assay the target is T1, Recombinant His-cGAS (human, UniProt Q8N884 1-522).
T1 construct: cGAS cloned into the pET28a plasmid for the GST pull-down; also called purified His-cGAS
Briefly: pull-down; purified His-cGAS incubated with GST, GST-TRIM6 or its truncated mutants on GST-tag resin overnight at 4 °C; 50 mM Tris pH 8.0, 200 mM NaCl, 1 mM EDTA, 1% NP-40, 1 mM DTT, 1 mM MgCl2; immunoblot with anti-His or anti-cGAS. Particulars: both partners purified. In general terms: In western blotting, separated proteins are transferred to a membrane and probed.

T1 sequence (Q8N884 whole entry): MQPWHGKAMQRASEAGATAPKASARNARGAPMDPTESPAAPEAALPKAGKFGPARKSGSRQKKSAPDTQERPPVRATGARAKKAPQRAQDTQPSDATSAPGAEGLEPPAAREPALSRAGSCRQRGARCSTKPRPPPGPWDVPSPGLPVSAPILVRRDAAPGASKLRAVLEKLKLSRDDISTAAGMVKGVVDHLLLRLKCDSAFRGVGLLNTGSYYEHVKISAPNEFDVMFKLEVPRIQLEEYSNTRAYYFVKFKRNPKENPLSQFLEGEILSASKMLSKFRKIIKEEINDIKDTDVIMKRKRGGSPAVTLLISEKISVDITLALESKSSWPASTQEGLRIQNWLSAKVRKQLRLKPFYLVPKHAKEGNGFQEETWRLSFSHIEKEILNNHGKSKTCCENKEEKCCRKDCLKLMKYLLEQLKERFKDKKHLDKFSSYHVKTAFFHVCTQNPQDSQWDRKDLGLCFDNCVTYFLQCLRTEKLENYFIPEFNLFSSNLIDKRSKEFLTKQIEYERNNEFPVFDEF

B1: GST-TRIM6 (full length) (enzyme, human, UniProt Q9C030-2 1-516, looked up)
chain: MCGSERILQAGNILEIRVGQAGARRVATMTSPVLVDIREEVTCPICLELLTEPLSIDCGHSFCQACITPNGRESVIGQEGERSCPVCQTSYQPGNLRPNRHLANIVRRLREVVLGPGKQLKAVLCADHGEKLQLFCQEDGKVICWLCERSQEHRGHHTFLVEEVAQEYQEKFQESLKKLKNEEQEAEKLTAFIREKKTSWKNQMEPERCRIQTEFNQLRNILDRVEQRELKKLEQEEKKGLRIIEEAENDLVHQTQSLRELISDLERRCQGSTMELLQDVSDVTERSEFWTLRKPEALPTKLRSMFRAPDLKRMLRVCRELTDVQSYWVDVTLNPHTANLNLVLAKNRRQVRFVGAKVSGPSCLEKHYDCSVLGSQHFSSGKHYWEVDVAKKTAWILGVCSNSLGPTFSFNHFAQNHSAYSRYQPQSGYWVIGLQHNHEYRAYEDSSPSLLLSMTVPPRRVGVFLDYEAGTVSFYNVTNHGFPIYTFSKYYFPTTLCPYFNPCNCVIPMTLRRPSS
notes: TRIM6, human, full-length, cloned into the pGEX-6T-1 vector; also called full-length TRIM6
Regarding B1, the binding result is “binds”.
